Measured values published in patent US20260176336A1 (MESTAG THERAPEUTICS, published 2026).
Where two headings read alike, the source gives them in different places.

How the values were obtained:
[1] = molecular target: T1, human LTBR endogenously expressed on cells (HepG2, A549, A375, HCC1187, RPMI-7951, primary human breast CAFs) (human, UniProt P36941 31-435); assay: cell-based or functional assay
[2] = molecular target: T1, human LTBR endogenously expressed on …; assay: cell-based or functional assay; remark: listed apart in the source
[3] = molecular target: T1, human LTBR endogenously expressed on …; assay: flow cytometry, inhibition of PE-LIGHT (24 nM final) binding to A549 cells; competitor LIGHT; partial inhibition
Protocol: (§1) The ability of VHH-Fc fusion proteins to bind to endogenously expressed LTBR on the A549 tumor cell and to inhibit human LIGHT (Acro, cat. no LIT-H5242) binding to A549 cells was assessed. BHA10 was employed in the assay as a positive control. Recombinant human LIGHT was labelled with PE fluorochrome, using PE/R-Phycoerythrin Conjugation Kit—Lightning-Link® (Abcam, cat no ab102918), following the manufacturer's instructions. 1×10⁶ cells were resuspended in the FACS buffer (1% BSA, 0.1% Sodium Azide in PBS), and 50 ul was added to each well ([…]) of a 96-U bottom plate. The cells were washed and resuspended in 25 ul of antibody dilution (2× final concentration) followed by 0.5 h incubation at 4° C., 25 ul of PE labelled LIGHT at 48 nM (2× final concentration) in FACS buffer was subsequently added to the cells and additionally incubated for 1 h at 4° C. […] Next, cells were extensively washed and fixed with Paraformaldehyde Solution, 4% in PBS (Thermo Scientific, cat no J19943.K2) for 20 mins, following the manufacturer's instructions. The cells were then washed, resuspended in PBS, and read on Beckman Coulter CytoFLEX. The data were analysed using FloJo V10 and GraphPad Prism v9. The IC50 and EC50 values can be found in.

[4] = molecular target: T1, human LTBR endogenously expressed on …; assay: cell-based or functional assay; remark: listed apart in the source
[5] = molecular target: T1, human LTBR endogenously expressed on …; assay: flow cytometry, A549 cells
Protocol: In short, 1×10⁶ cells were resuspended in the FACS buffer (1% BSA, 0.1% Sodium Azide in PBS), and 50 μl was added to each well (5×10⁴ cells/well) of a 96-U bottom plate. The cells were washed once and resuspended in 50 μl/well of FACS buffer containing a 1:3, 11-point series dilutions of constructs 4.1-4.6 and clones 4.8-4.9 followed by 1 h incubation at 4° C. […] Next, cells were washed and resuspended in FACS buffer and read on Beckman Coulter CytoFLEX. The data were analysed using FloJo V10 and GraphPad Prism v9. Clone 4.7 was tested for binding to A375 (LTBR positive cell line) and the HEK293-FAP overexpressing cell line, as described in examples 2.4 and 3.5. The EC50 values can be found in.

[6] = molecular target: T1, human LTBR endogenously expressed on …; assay: flow cytometry, A549 cells; remark: listed apart in the source
Protocol: as §1

B1: BHA10 (antibody, V domains shown)
VH: QVQLVQSGAEVKKPGSSVKVSCKASGYTFTTYYLHWVRQAPGQGLEWMGWIYPGNVHAQYNEKFKGRVTITADKSTSTAYMELSSLRSEDTAVYYCARSWEGFPYWGQGTTVTVSS
VL: DIQMTQSPSSLSASVGDRVTITCKASQNVGINVAWYQQKPGKAPKSLISSASYRYSGVPSRFSGSGSGTDFTLTISSLQPEDFATYFCQQYDTYPFTFGQGTKVEIK
notes: as disclosed in WO2004002431; also called BHA10 (anti-LTBR); monospecific anti-LTBR agonist
- HCC1187 chemokine induction assay (CCL19) EC50 [1]: 530 pM
- HepG2 reporter assay EC50 (w/o cross-linking antibody) [2]: 52 pM
- HepG2 reporter assay EC50 (with cross-linking antibody) [2]: 29 pM
- IC50 [3]: 670 pM
- HepG2 Reporter assay (NFKB activation-induced luciferase activity) EC50 [4]: 12 pM
- EC50 [5]: 55 pM
- EC50 [6]: 780 pM
